Test [1] concerns the target T1, cardiac LC20 (Homo sapiens, UniProt P10916).
T1 construct: using isolated cardiac myofibrils and associated proteins; from tissue
T1 sequence (P10916 1-166): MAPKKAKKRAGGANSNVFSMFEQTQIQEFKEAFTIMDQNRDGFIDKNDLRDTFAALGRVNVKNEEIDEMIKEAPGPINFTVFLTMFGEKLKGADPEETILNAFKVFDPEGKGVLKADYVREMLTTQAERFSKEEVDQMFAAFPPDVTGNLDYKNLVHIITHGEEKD
Kind of test: In vitro phosphorylation of cardiac LC20. The test is classed as biochemical. How it is done: In vitro phosphorylation of intact smooth, skeletal, cardiac, platelet, and Dictyostelium myosin and isolated LC20, caldesmon, and caldesmon fragments, and cardiac and skeletal Tn were carried out at 25° C. in 10 mM Tris, pH 7.0, 50 mM sodium chloride, 1 mM [γ^32P]ATP (5×10^5 cpm per nmol) or at 37° C. in the same buffer except containing 150 mM sodium chloride. Aliquots of the reaction mixture were analyzed for protein phosphorylation using Whatman P81 paper and SDS-gel electrophoresis/autoradiography as previously described (Childs, T. J. et al. 1992. J. Biol. Chem. 267:22853-22859). In the case of cardiac and skeletal Tn, the three Tn subunits (TnI, TnT, and TnC) were separated by reversed phase HPLC. The individual subunits were analyzed for incorporation of ^32P (i.e., phosphorylation by PAK) by SDS-PAGE and autoradiography and direct counting.
Phosphorylated amino acids were identified by thin-layer electrophoresis after partial hydrolysis of the phosphorylated proteins in 6 N hydrochloric acid as previously described (Childs, T. J. et al. 1992. J. Biol. Chem. 267:22853-22859; Mak, A. S. et al. 1991. J. Biol. Chem. 266:19971-19975; Mak, A. S. et al. 1991. J. Biol. Chem. 266:6678-6681). […]

In test [2] the test system is actin-tropomyosin. Description: Actin-tropomyosin binding assay (centrifugation). Particulars: FIG. 5. How it is done:
To quantitate the amount of smooth muscle caldesmon and smooth muscle tropomyosin bound to the skeletal actin thin filament (>95% amino acid homology to smooth muscle actin), centrifugation studies were carried out in binding buffer consisting of 20 mM Tris-HCl pH 7.2, 10 mM KCl, 5 mM MgCl2 and 1 mM DTT. The concentration of actin was 5 nmole/200 μl (˜25 μM) and the mole ratio of actin to tropomyosin was 7:2. Increasing quantities of unphosphorylated or phosphorylated caldesmon were added to the actin-tropomyosin mixture. Protein concentrations were determined by the Lowry method or by absorbance at 280 nm. Samples were spun for 30 min at approximately 95,000 rpm, resulting in the pelleting of over 95% of the actin. The obtained pellets were dissolved in 100 μl of 0.05% aqueous trifluroacetic acid (TFA) and injected on a Zorbax C8 SB300 reversed-phase column (4.6 mm×250 mm) on a Varian HPLC system (Star series). The various proteins were eluted using a 2% B/min linear A/B gradient with a 5 min initial isocratic hold, where solvent A is 0.05% aqueous TFA and solvent B is 0.05% TFA in acetonitrile. The flow rate was 1 ml/min. The peak areas were determined at 210 nm and converted to nanomoles using a standard curve obtained for each protein. […] The experiments were done in triplicate and the standard deviation calculated.

Test [3] addresses smooth muscle myosin ATPase (Gallus gallus, UniProt P02607+P10587). Description: Actin-tropomyosin activated ATPase activity of smooth muscle subfragment 1 (S1). The format is biochemical. To be noted: FIG. 6. How it is done:
Reactions consisted of 10 μM actin, 2 μM tropomyosin, 0.5 μM S1, and variable concentrations of unphosphorylated and phosphorylated caldesmon. The buffer contained 40 mM Tris-HCl pH 7.8, 50 mM KCl, 5 mM MgCl2, 1 mM DTT at 37° C. Reactions were performed in a 96 well microtitre plate, triggered by the addition of 4 mM ATP. The phosphate assay was performed according to the method of Chifflet, S. et al. 1988. (Anal. Biochem. 168:1-4). Briefly, reactions were terminated by the addition of an equal volume (100 μL) of reagent which contained 6% (w/v) SDS, 3% (w/v) ascorbic acid, 1M HCl, 0.5% (w/v) ammonium molybdate. The mixture was incubated for 5 minutes prior to the addition of a second reagent which contained 2% sodium citrate, 2% sodium m-arsenite, and 2% acetic acid. Blue colour developed quickly over 5 minutes. Microtitre plates were read at 650 nm on an E-max ELISA plate reader (Molecular Dynamics, Sunnyvale Calif.). Phosphate was determined by comparing experimental values to standard phosphate values obtained through dilution of phosphate-buffered saline (PBS).

Sequence of smooth muscle myosin ATPase (P10587 84-789 limits assumed): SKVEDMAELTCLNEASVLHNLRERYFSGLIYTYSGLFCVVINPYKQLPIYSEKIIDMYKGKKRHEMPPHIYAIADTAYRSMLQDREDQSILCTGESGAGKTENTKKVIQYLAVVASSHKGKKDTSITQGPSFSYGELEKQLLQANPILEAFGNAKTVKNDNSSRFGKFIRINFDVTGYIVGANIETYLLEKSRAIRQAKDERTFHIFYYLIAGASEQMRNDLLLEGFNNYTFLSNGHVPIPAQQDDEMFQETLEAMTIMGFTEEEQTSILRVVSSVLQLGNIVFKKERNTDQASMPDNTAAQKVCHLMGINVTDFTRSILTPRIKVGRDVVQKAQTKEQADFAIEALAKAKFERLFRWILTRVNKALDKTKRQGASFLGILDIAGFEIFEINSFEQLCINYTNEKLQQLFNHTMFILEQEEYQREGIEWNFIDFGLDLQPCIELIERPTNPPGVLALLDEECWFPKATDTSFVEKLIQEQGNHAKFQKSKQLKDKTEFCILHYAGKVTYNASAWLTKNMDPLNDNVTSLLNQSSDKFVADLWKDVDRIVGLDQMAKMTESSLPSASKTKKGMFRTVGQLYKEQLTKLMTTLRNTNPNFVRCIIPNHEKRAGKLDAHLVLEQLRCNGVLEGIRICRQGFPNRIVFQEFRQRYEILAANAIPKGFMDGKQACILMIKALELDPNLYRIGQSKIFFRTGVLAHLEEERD
Sequence of smooth muscle myosin ATPase (P02607 2-151 limits assumed): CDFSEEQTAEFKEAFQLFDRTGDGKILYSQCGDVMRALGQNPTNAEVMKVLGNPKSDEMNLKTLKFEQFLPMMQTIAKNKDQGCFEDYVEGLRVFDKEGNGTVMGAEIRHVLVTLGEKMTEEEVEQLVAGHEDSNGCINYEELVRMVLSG

“MLCK: myosin light chain kinase purified from chicken gizzard”: the “phosphorylation of cardiac LC20” value in test [1] is given as 0.2 mol phosphate per mol protein.

B1: PAK-phosphorylated caldesmon: caldesmon phosphorylated by PAK (protein, UniProt P12957 1-771, looked up)
Caldesmon: MDDFERRRELRRQKREEMRLEAERLSYQRNDDDEEEAARERRRRARQERLRQKEEGDVSGEVTEKSEVNAQNSVAEEETKRSTDDEAALLERLARREERRQKRLQEALERQKEFDPTITDGSLSVPSRREVNNVEENEITGKEEKVETRQGRCEIEETETVTKSYQRNNWRQDGEEEGKKEEKDSEEEKPKEVPTEENQVDVAVEKSTDKEEVVETKTLAVNAENDTNAMLEGEQSITDAADKEKEEAEKEREKLEAEEKERLKAEEEKKAAEEKQKAEEEKKAAEERERAKAEEEKRAAEERERAKAEEERKAAEERERAKAEEERKAAEERAKAEEERKAAEERAKAEEERKAAEERAKAEKERKAAEERERAKAEEEKRAAEEKARLEAEKLKEKKKMEEKKAQEEKAQANLLRKQEEDKEAKVEAKKESLPEKLQPTSKKDQVKDNKDKEKAPKEEMKSVWDRKRGVPEQKAQNGERELTTPKLKSTENAFGRSNLKGAANAEAGSEKLKEKQQEAAVELDELKKRREERRKILEEEEQKKKQEEAERKIREEEEKKRMKEEIERRRAEAAEKRQKVPEDGVSEEKKPFKCFSPKGSSLKIEERAEFLNKSAQKSGMKPAHTTAVVSKIDSRLEQYTSAVVGNKAAKPAKPAASDLPVPAEGVRNIKSMWEKGNVFSSPGGTGTPNKETAGLKVGVSSRINEWLTKTPEGNKSPAPKPSDLRPGDVSGKRNLWEKQSVEKPAASSSKVTATGKKSETNGLRQFEKEP
modifications: phosphorylated by PAK
As to B1, the “change in affinity of caldesmon for actin(-tropomyosin), phosphorylated vs unphosphorylated” value in test [2] is “approximately two-fold reduction”. In addition, the “inhibition of smooth muscle myosin ATPase activity” value in test [3] is given as “inhibition was clearly released”.

B2: caldesmon: unphosphorylated smooth muscle caldesmon purified from chicken gizzard (protein, UniProt P12957 1-771, looked up)
Caldesmon: B1 Caldesmon
In the case of B2, the “inhibition of smooth muscle myosin ATPase activity” value in test [3] is listed as “inhibited”.

(Values after patent publication US20020045564A1, “Methods of modulating muscle contraction” (priority 1997, published 2002).)
